Laboratory results as given in patent publication US20220396632A1 (VERSEAU THERAPEUTICS, published 2022).
Blank lines part the entries; values can stand above or below the binder they belong to. Non-standard residues stand in square brackets, D forms with d. No end group written: not given here. *: point of attachment. Biotin = O=C1N[C@H]2[C@H](CS[C@H]2CCCCC(=O)*)N1; sY = N[C@@H](Cc1ccc(OS(=O)(=O)O)cc1)C(=O)O

How the values were obtained:
[1] = biological target: T1, Recombinant human PSGL-1(ECD)-hFc1 (R&D Systems, Cat. 3345-PS) (human, UniProt Q14242 42-305); test: Octet tandem; competitor 19L04
T1 construct: Bought; Gln42-Val295 counted on AAC50061; also called PSGL-1-Fc; PSGL-1-hFc1 chimera; not shown: human IgG1 Fc, Pro100-Lys330
T1 sequence: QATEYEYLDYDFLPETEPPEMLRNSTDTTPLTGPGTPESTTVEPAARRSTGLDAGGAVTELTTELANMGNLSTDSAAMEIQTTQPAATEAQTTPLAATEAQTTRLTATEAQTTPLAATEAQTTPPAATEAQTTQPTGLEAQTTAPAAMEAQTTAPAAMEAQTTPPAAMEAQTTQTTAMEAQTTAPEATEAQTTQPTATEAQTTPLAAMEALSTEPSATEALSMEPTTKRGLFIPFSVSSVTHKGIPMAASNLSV
Experimental: (§1) Antibody binning was performed by ForteBio Octet® using a tandem assay format, with anti-human IgG biosensor-immobilized PSGL-1(ECD)-hFc1 protein, binding of competitor mAb followed by analyte antibody. As competition controls, the same antibody was competed against itself, and mAb competition was performed bidirectionally.
(§2) Antibody binning by tandem octet was performed by immobilizing 10 ug/mL PSGL-1(ECD)-hFc1 (R&D Systems, Cat. #3345-PS) in PBS, pH 7.4, onto anti-human IgG capture biosensors (ForteBio, Cat. #18-5060), binding of 100 nM competitor antibody for 300 sec., followed by binding of 100 nM of analyte mAb for 300 s in kinetic buffer (0.1% BSA in PBS containing 0.02% tween 20 and 0.05% sodium azide, pH 7.4). Synagis (Johnson et al. (1997) J. Infect. Dis. 176:1215-1224) served as a negative control mAb for competition. An Fc quench step (0.25 mg/mL human IgG Fcl; BioXcell, Cat. #BE0096, in kinetic buffer) was included when human mAbs were tested to prevent high background from the antibodies binding to the anti-human IgG biosensor. Biosensor regeneration buffer consisted of 10 mM glycine, pH 2.0.

[2] = biological target: T2, Biotin PSGL-1(290-310) peptide (human, N-terminal acetyl; C-terminal Lys-biotin); test: ELISA; against WT PSGL-1(ECD)-hFc1
T2 peptide: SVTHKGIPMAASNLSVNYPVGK
Experimental: (§3) A typical ELISA experiment involved binding of a single concentration or serially diluted mAb in assay buffer (3% BSA in PBS containing 0.05% Tween®20, pH 7.4) onto BSA blocked high binding microtiter plate half-wells (Corning Cat. #3690), which contained PSGL-1 protein or streptavidin-immobilized biotin peptide. After incubation for 45 min. at 37° C., the plate was washed 3 times with wash buffer (PBS containing 0.05% Tween®20, pH 7.4), and an appropriate HRP-conjugated secondary antibody added (25 ul/well) (HRP goat anti-mouse or anti-human IgG). After 45 min. incubation at 37° C., the plate was washed and antibody bound to plate-immobilized target was determined at A450 nm using HRP substrate (3,3′5,5′-tetramethylbenzidine (TMB)). For each antibody, duplicate values were averaged and assay background subtracted.

[3] = biological target: T3, Human PSGL-1(ECD)-HIS (human, UniProt Q14242 42-319); test: ELISA, plate-immobilized protein
T3 construct: also called Human PSGL-1-His
T3 sequence: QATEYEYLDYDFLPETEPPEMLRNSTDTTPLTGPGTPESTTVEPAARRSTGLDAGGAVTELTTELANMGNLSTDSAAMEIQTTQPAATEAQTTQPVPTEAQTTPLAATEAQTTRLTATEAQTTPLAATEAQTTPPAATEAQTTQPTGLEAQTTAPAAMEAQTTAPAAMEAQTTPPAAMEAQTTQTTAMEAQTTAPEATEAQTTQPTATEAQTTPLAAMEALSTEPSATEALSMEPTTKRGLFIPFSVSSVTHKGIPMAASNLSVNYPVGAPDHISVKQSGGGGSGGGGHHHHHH

[4] = biological target: T1, Recombinant human PSGL-1(ECD)-hFc1 (R&D …); test: ELISA, plate-immobilized protein
[5] = biological target: T1, Recombinant human PSGL-1(ECD)-hFc1 (R&D …); test: Octet tandem; competitor 18K07
Experimental: as §1, §2

[6] = biological target: T1, Recombinant human PSGL-1(ECD)-hFc1 (R&D …); test: Octet tandem; competitor 19J23
Experimental: as §1, §2

[7] = biological target: T1, Recombinant human PSGL-1(ECD)-hFc1 (R&D …); test: Octet tandem; competitor 20G13
Experimental: as §1, §2

[8] = biological target: T1, Recombinant human PSGL-1(ECD)-hFc1 (R&D …); test: Octet tandem; competitor 19N05
Experimental: as §1, §2

[9] = biological target: T2, Biotin PSGL-1(290-310) peptide; test: ELISA, plate-bound peptide or protein
Experimental: as §3

[10] = biological target: T1, Recombinant human PSGL-1(ECD)-hFc1 (R&D …); test: Octet tandem; competitor 15A7
Experimental: as §1, §2

[11] = biological target: T1, Recombinant human PSGL-1(ECD)-hFc1 (R&D …); test: Octet tandem; competitor 18F17
Experimental: as §1, §2

[12] = biological target: T1, Recombinant human PSGL-1(ECD)-hFc1 (R&D …); test: Octet tandem; competitor 16E17
Experimental: as §1, §2

[13] = biological target: PSGL-1(ECD)-hFc1 S116A protein (Sino Biological) (human); test: ELISA; against WT PSGL-1(ECD)-hFc1
Experimental: as §3

[14] = biological target: PSGL-1(ECD)-hFc1 M119A protein (Sino Biological) (human); test: ELISA; against WT PSGL-1(ECD)-hFc1
Experimental: as §3

[15] = biological target: PSGL-1(ECD)-hFc1 I121A protein (Sino Biological) (human); test: ELISA; against WT PSGL-1(ECD)-hFc1
Experimental: as §3

[16] = biological target: T4, Biotin PSGL-1(105-125) peptide (human, N-terminal acetyl; C-terminal Lys-biotin); test: ELISA, streptavidin-immobilized biotin peptide
T4 peptide: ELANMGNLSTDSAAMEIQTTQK
Experimental: as §3

[17] = biological target: T5, 42-80 (C-terminal Lys-biotin); test: ELISA, streptavidin-immobilized biotin peptide
T5 construct: also called Biotin PSGL-1(42-80) peptide
T5 peptide: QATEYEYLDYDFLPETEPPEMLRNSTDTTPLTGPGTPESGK
Experimental: as §3

[18] = biological target: T6, Biotin PSGL-1(42-62) peptide, unmodified (human, C-terminal Lys-biotin); test: ELISA, streptavidin-immobilized biotin peptide
T6 construct: Residues 42-62 followed by GGGK-biotin; also called WT; wild-type
T6 peptide: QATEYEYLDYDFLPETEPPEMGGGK
Experimental: as §3

[19] = biological target: PSGL-1(ECD)-hFc1 S116A protein (Sino Biological) (human); test: ELISA, plate-bound peptide or protein
Experimental: as §3

[20] = biological target: PSGL-1(ECD)-hFc1 M119A protein (Sino Biological) (human); test: ELISA, plate-bound peptide or protein
Experimental: as §3

[21] = biological target: PSGL-1(ECD)-hFc1 I121A protein (Sino Biological) (human); test: ELISA, plate-bound peptide or protein
Experimental: as §3

[22] = biological target: T1, Recombinant human PSGL-1(ECD)-hFc1 (R&D …); test: blocking ELISA vs L-selectin-Fc
Experimental: (§4) A typical selectin blocking ELISA assay involved coating high binding half-well plates (Corning, Cat. #3690) with 2.5 ug/mL/25 ul per well of recombinant PSGL-1-Fc protein (R&D Systems, Cat #3345-PS) in PBS, pH 7.4, overnight at 4° C. […] Antibody (test and controls) was serially diluted (25 ul/well) in duplicate in assay buffer (3% BSA in wash buffer) into appropriate wells and the plate incubated for 45 min at 37° C. […] The plate was washed ×3 and HRP-conjugated streptavidin was added in assay buffer [25 ul per well; (Jackson Immunoresearch, Cat. #016-030-084)] and the plate incubated for 45 min at 37° C. […] For each antibody, an IC50 value was determined from sigmoidal fitted titration curves.

[23] = biological target: T1, Recombinant human PSGL-1(ECD)-hFc1 (R&D …); test: blocking ELISA vs VISTA-Fc, pH 6.0
[24] = biological target: T1, Recombinant human PSGL-1(ECD)-hFc1 (R&D …); test: blocking ELISA vs P-selectin-Fc
Experimental: as §4

[25] = biological target: T4, Biotin PSGL-1(105-125) peptide; test: ELISA; against WT PSGL-1(ECD)-hFc1
Experimental: as §3

[26] = biological target: T4, Biotin PSGL-1(105-125) peptide; test: ELISA, plate-bound peptide or protein
Experimental: as §3

[27] = biological target: T7, PSGL-1(42-62) N-terminal peptide, sulfation state not told at the place (human, not fully specified; sulfation of Y46, Y48, Y51 not stated for these table columns); test: mAb binding to PSGL-1(42-62)
T7 peptide: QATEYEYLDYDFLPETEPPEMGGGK

[28] = biological target: T8, Biotin Y46,48,51(SO3) PSGL-1(42-62) peptide (human, sulfotyrosine at Y46, Y48 and Y51; C-terminal Lys-biotin); test: ELISA, plate-bound peptide
T8 construct: also called fully sulfated N-terminal PSGL-1 peptide
T8 peptide: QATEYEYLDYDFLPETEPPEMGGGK

[29] = biological target: T9, Sulfotyrosine CCR2b biotin peptide (human); test: ELISA, plate-bound peptide
T9 construct: also called CCR2b peptide
T9 peptide: TTFFD[sY]D[sY]GAPSHGGK(Biotin)

Sequence of PSGL-1(ECD)-hFc1 I121A protein (Sino Biological) (human) (chain, as listed by the source I121A I121A): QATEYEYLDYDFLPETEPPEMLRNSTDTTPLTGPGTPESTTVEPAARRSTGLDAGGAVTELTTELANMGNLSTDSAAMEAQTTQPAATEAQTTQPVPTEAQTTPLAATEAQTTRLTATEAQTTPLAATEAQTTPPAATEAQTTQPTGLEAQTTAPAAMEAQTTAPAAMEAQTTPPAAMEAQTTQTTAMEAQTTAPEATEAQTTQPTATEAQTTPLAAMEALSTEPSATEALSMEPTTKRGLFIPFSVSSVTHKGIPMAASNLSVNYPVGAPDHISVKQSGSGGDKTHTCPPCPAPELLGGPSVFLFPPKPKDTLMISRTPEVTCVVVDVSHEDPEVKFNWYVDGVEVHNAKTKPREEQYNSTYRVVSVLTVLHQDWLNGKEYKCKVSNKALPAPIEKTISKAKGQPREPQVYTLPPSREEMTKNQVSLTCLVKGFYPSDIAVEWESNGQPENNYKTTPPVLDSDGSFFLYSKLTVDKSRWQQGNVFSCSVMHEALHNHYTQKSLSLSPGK
Sequence of PSGL-1(ECD)-hFc1 S116A protein (Sino Biological) (human) (chain, as listed by the source S116A S116A): as the sequence (chain, as listed by the source I121A I121A) above, with S75A, A80I counted along it

- % binding of analyte mAb [1]: 68.9%
- EC50/EC50WTprot [2]: 3.1 fold
- EC50 (read off the curve) [3]: ~0.9 nM
- % binding of analyte mAb [5]: 100%
- % binding of analyte mAb [6]: 29.2%
- % binding of analyte mAb [7]: 55.9%
- % binding of analyte mAb [8]: 76.6%
- EC50 [9]: 2.19 nM
- % binding of analyte mAb [10]: 84.9%
- % binding of analyte mAb [11]: 52.1%
- % binding of analyte mAb [12]: 93.3%
B1: 19J23 (antibody, V domains shown)
VH: EVKLVESGGGLVQPGGSLSLSCAASGFTFTDYYMSWVRQPPGKALEWLALIRNKANGYTTEYSASVKGRFTISRDDSQSILYLQVNALRAEDVATYYCARPWDYWGQGTTLTVSS
VL: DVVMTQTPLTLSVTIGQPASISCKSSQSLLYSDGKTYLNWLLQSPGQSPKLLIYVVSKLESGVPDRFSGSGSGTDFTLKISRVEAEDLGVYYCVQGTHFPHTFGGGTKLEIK
notes: Non-functional anti-PSGL-1 mAb (Verseau); only variable domains given
- binding result [4]: no binding (tested: Log M -7.4 (about 40 nM))

- % binding of analyte mAb [1]: 68.7%
- EC50/EC50WTprot [2]: < 1 fold
- EC50/EC50WTprot [13]: 0.67 fold
- EC50/EC50WTprot [14]: 0.74 fold
- EC50/EC50WTprot [15]: 0.68 fold
- EC50 (read off the curve) [3]: ~0.7 nM
- binding result [16]: no binding (tested: 10 nM)
- binding result [17]: no binding (tested: 10 nM)
- binding result [18]: no binding (tested: 10 nM)
- % binding of analyte mAb [5]: 90.7%
- % binding of analyte mAb [6]: 26.9%
- % binding of analyte mAb [7]: 22%
- % binding of analyte mAb [8]: 84.2%
- EC50 [9]: < 0.5 nM
- EC50 [19]: 0.54 nM
- EC50 [20]: 0.6 nM
- EC50 [21]: 0.55 nM
- % binding of analyte mAb [10]: 61.9%
- % binding of analyte mAb [11]: 28.2%
- % binding of analyte mAb [12]: 124%
B2: 18F17 (antibody, V domains shown)
VH: QVTLKESGPGILQPSQTLSLTCSFSGFSLSTFGMGVGWIRQPSGKGLEWLAHIWWDDDKYYNPALKSRLTISKDTSKNQVFLKIANVDTADTATYYCAIYYDYGVGFDYWGQGTTLTVSS
VL: DIVMTQAAPSVPVTPGESVSISCRSSKSLLHSNGYTFLYWFLQRPGQSPQLLIYRMSNLASGVPDRFSGSGSGTAFTLRISRVEAEDVGVYYCMQHLEYPFTFGTGTKLEIK
notes: as for B1

- % binding of analyte mAb [1]: 48%
- % max Block [22]: 0%
- % max Block [23]: 0%
- % max Block [24]: 0%
- EC50/EC50WTprot [25]: 7.18 fold
- EC50/EC50WTprot [13]: 0.78 fold
- EC50/EC50WTprot [14]: ~30 fold
- EC50/EC50WTprot [15]: ~60 fold
- % binding of analyte mAb [5]: 91.5%
- % binding of analyte mAb [6]: 94.3%
- % binding of analyte mAb [7]: 15.1%
- % binding of analyte mAb [8]: 46.2%
- EC50 [26]: 4.31 nM
- EC50 [19]: 0.25 nM
- EC50 [20]: ~10 nM
- EC50 [21]: ~20 nM
- % binding of analyte mAb [10]: 28.3%
- binding result [27]: no binding
- % binding of analyte mAb [11]: 86.6%
- % binding of analyte mAb [12]: 56.2%
B3: 15A7 (antibody, V domains shown)
VH: EVQLVESGGGLVQPGGSLRLSCAASGFTFSSFGMHWVRQAPGKGLEWVAYINGGSSTIFYANAVKGRFTISRDNAKNTLYLQMNSLRAEDTAVYYCARYASYGGGAMDYWGQGTLVTVSS
VL: DIQMTQSPSSLSASVGDRVTITCRSSQSIVHNDGNTYFEWYQQKPGKAPKLLIYKVSNRFSGVPSRFSGSGSGTHFTLTISSLQPEDFATYYCFQGSYVPLTFGQGTKVEIK
notes: Control mAb, recombinant; also called h15A7; 15A17

- EC50 [28]: 0.71 nM
- binding result [29]: no binding (tested: 20 nM)
B4: 06G08 (antibody, IgG4, V domains shown)
VH: EVKLLESGGGVVQPGGSLRLSCAVSGFTFSNYAMHWVRQAPGKGLEWVAVISFDGSNKYTADSVQGRFTISRDNSKNTLYLQMNSLTPEDTAVYYCASRIIRTVAGGDYWGQGTLVTVSS
VL: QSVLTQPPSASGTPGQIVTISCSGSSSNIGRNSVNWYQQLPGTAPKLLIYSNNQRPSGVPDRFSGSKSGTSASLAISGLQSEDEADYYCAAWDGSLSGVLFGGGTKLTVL
